In publication PMC7958410, “Hepatitis B virus X protein promotes vimentin expression via LIM and SH3 domain protein 1 to facilitate epithelial-mesenchymal transition and hepatocarcinogenesis” (Cell Communication and Signaling : CCS, 2021):

Target: T1, His-vimentin (UniProt P08670 1-466)
T1 construct: vimentin; also called vimentin with His Tag; source: E. coli DH5α, purified by His-beads
Test: pull-down; GST fusion bound to glutathione-Sepharose beads incubated with purified His-tagged protein at 4 °C; washed 3 times with binding buffer; western blot
Conditions: both partners purified

T1 sequence (P08670 whole entry): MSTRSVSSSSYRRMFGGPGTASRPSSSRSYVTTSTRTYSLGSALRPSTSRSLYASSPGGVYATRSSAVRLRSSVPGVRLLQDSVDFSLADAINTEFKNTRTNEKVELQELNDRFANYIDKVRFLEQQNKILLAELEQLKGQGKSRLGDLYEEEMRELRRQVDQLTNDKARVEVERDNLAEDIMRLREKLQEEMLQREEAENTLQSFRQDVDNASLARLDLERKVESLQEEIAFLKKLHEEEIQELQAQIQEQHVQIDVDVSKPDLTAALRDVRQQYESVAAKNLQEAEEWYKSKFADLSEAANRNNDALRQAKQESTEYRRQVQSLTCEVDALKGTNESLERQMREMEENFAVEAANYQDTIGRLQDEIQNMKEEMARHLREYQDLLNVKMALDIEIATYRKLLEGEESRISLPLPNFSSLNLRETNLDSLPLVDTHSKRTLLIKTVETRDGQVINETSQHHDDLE

B1: GST-LASP1 (natural protein, UniProt Q14847 1-261, looked up)
chain: MNPNCARCGKIVYPTEKVNCLDKFWHKACFHCETCKMTLNMKNYKGYEKKPYCNAHYPKQSFTMVADTPENLRLKQQSELQSQVRYKEEFEKNKGKGFSVVADTPELQRIKKTQDQISNIKYHEEFEKSRMGPSGGEGMEPERRDSQDGSSYRRPLEQQQPHHIPTSAPVYQQPQQQPVAQSYGGYKEPAAPVSIQRSAPGGGGKRYRAVYDYSAADEDEVSFQDGDTIVNVQQIDDGWMYGTVERTGDTGMLPANYVEAI
notes: LIM and SH3 domain protein 1 (LASP1); also called LASP1 with GST Tag
binding result: binds
